# Measurements published in patent US20030096757.
# T1: 19-mer (SEQ ID NO:11) cleavage domain peptide
# T1 chain: PRCGNPDVANYNFFPRKPK
# Biological target: T1, 19-mer (SEQ ID NO:11) cleavage domain …
protein,measurement,value
Proenzyme pro-MMP-9 (protein) APRQRQSTLVLFPGDLRTNLTDRQLAEEYLYRYGYTRVAEMRGESKSLGPALLLLQKQLSLPETGELDSATLKAMRTPRCGVPDLGRFQTFEGDLKWHHHNITYWIQNYSEDLPRAVIDDAFARAFALWSAVTPLTFTRVYSRDADIVIQFGVAEHGDGYPFDGKDGLLAHAFPPGPGIQGDAHFDDDELWSLGKGVVVPTRFGNADGAACHFPFIFEGRSYSACTTDGRSDGLPWCSTTANYDTDDRFGFCPSERLYTQDGNADGKPCQFPFIFQGQSYSACTTDGRSDGYRWCATTANYDRDKLFGFCPTRADSTVMGGNSAGELCVFPFTFLGKEYSTCTSEGRGDGRLWCATTSNFDSDKKWGFCPDQGYSLFLVAAHEFGHALGLDHSSVPEALMYPMYRFTEGPPLHKDDVNGIRHLYGPRPEPEPRPPTTTTPQPTAPPTVCPTGPPTVHPSERPTAGPTGPPSAGPTGPPTAGPSTATTVPLSPVDDACNVNIFDAIAEIGNQLYLFKDGKYWRFSEGRGSRPQGPFLIADKWPALPRKLDSVFEERLSKKLFFFSGRQVWVYTGASVLGPRRLDKLGLGADVAQVTGALRSGRGKMLLFSGRRLWRFDVKAQMVDPRSASEVDRMFPGVPLDTHDVFQYREKAYFCQDRFYWRVSSRSELNQVDQVGYVTYDILQCPED,"anti-activation (splicing) assay: conversion of pro-MMP-9 by stromilysin, HPLC peak areas",Titrating the standard splicing reaction with the 19-mer (SEQ ID NO:11) peptide prevents the conversion of pro-MMP-9 into the prodomain and the active enzyme. Splicing can be inhibited in a dose dependent manner with micromolar 19-mer (SEQ ID NO:11) peptide.
